Test results published in publication PMC10313831, “ssDNA accessibility of Rad51 is regulated by orchestrating multiple RPA dynamics”.

Assays:
[1] = target: T1, RPA (Rfa1-Rfa2-Rfa3) (Saccharomyces cerevisiae, UniProt P22336;P26754;P26755 1-621;1-273;1-122); assay: EMSA; 150 mM KCl; single shifted species, affinity similar to dT30; EMSA: 20 mM Tris-HCl pH 7.5, 150 (or 15) mM KCl, 1 mM DTT, 100 ug/mL BSA, 5 nM DNA, 30 C 10 min; curtains: 40 mM Tris-HCl pH 7.5, 150 or 15 mM NaCl, 2 mM MgCl2, 1 mM DTT, 0.2 mg/mL BSA; MST: 1x PBS-P+; conditions: protein: recombinant; tags: His tag (MST: His-tagged RPA, RED-tris-NTA dye); copies: 1;1;1; label: 5'-32P
T1 sequence (P22336 whole entry, chain 1 of 3): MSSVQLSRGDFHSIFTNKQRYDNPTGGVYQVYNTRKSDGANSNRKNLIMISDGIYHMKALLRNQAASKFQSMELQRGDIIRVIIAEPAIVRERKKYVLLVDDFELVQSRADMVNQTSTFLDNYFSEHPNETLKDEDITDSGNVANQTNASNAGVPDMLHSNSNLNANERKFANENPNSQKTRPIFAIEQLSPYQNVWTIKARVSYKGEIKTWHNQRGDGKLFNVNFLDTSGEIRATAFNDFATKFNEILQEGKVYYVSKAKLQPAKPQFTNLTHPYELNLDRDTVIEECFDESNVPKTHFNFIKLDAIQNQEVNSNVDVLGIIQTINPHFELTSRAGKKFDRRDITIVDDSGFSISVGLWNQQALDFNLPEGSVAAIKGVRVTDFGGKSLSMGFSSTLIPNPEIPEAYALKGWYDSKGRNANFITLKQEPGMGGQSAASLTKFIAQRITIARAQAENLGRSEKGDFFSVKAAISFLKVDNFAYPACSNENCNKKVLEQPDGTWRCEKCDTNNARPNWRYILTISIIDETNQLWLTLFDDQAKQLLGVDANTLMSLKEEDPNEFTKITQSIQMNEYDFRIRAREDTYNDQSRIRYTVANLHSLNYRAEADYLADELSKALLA
T1 sequence (P26754 whole entry, chain 2 of 3): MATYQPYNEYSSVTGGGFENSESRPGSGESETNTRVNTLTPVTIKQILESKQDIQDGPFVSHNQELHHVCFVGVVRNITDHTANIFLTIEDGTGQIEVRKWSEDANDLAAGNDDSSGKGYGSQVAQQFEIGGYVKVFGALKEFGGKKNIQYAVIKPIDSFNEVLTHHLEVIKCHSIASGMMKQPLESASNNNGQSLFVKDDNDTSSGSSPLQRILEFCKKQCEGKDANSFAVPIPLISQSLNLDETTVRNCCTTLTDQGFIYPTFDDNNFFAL
T1 sequence (P26755 whole entry, chain 3 of 3): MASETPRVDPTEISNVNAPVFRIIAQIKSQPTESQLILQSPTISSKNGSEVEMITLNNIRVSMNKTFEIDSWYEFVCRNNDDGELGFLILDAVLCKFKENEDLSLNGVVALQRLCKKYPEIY

[2] = target: T1, RPA (Rfa1-Rfa2-Rfa3); assay: EMSA; 150 mM KCl; single shifted species; EMSA: 20 mM Tris-HCl pH 7.5, 150 (or 15) mM KCl, 1 mM DTT, 100 ug/mL BSA, 5 nM DNA, 30 C 10 min; curtains: 40 mM Tris-HCl pH 7.5, 150 or 15 mM NaCl, 2 mM MgCl2, 1 mM DTT, 0.2 mg/mL BSA; MST: 1x PBS-P+; conditions: protein: recombinant; tags: His tag (MST: His-tagged RPA, RED-tris-NTA dye); copies: 1;1;1; label: 5'-32P (EMSA); unlabeled (MST)
[3] = target: RPA-MeGFP (Saccharomyces cerevisiae, UniProt P22336;P26754;P26755 1-621;1-273;1-122); assay: MST; similar to RPA; EC50 only in figure; PBS-P+; EMSA: 20 mM Tris-HCl pH 7.5, 150 (or 15) mM KCl, 1 mM DTT, 100 ug/mL BSA, 5 nM DNA, 30 C 10 min; curtains: 40 mM Tris-HCl pH 7.5, 150 or 15 mM NaCl, 2 mM MgCl2, 1 mM DTT, 0.2 mg/mL BSA; MST: 1x PBS-P+; conditions: protein: recombinant; tags: MeGFP (eGFP A206K)-6xHis at Rfa2 C-terminus, LG linker; copies: 1;1;1; label: 5'-32P (EMSA); unlabeled (MST)
Sequence of RPA-MeGFP (P22336 whole entry, chain 1 of 3): as the sequence (P22336 whole entry, chain 1 of 3) above
Sequence of RPA-MeGFP (P26754 whole entry, chain 2 of 3): as the sequence (P26754 whole entry, chain 2 of 3) above
Sequence of RPA-MeGFP (P26755 whole entry, chain 3 of 3): as the sequence (P26755 whole entry, chain 3 of 3) above

[4] = target: T1, RPA (Rfa1-Rfa2-Rfa3); assay: EMSA; minimal length for stable first RPA; EMSA: 20 mM Tris-HCl pH 7.5, 150 (or 15) mM KCl, 1 mM DTT, 100 ug/mL BSA, 5 nM DNA, 30 C 10 min; curtains: 40 mM Tris-HCl pH 7.5, 150 or 15 mM NaCl, 2 mM MgCl2, 1 mM DTT, 0.2 mg/mL BSA; MST: 1x PBS-P+; conditions: protein: recombinant; tags: His tag (MST: His-tagged RPA, RED-tris-NTA dye); copies: 1;1;1; label: 5'-32P
[5] = target: T1, RPA (Rfa1-Rfa2-Rfa3); assay: EMSA; minimal length for stable third RPA; EMSA: 20 mM Tris-HCl pH 7.5, 150 (or 15) mM KCl, 1 mM DTT, 100 ug/mL BSA, 5 nM DNA, 30 C 10 min; curtains: 40 mM Tris-HCl pH 7.5, 150 or 15 mM NaCl, 2 mM MgCl2, 1 mM DTT, 0.2 mg/mL BSA; MST: 1x PBS-P+; conditions: protein: recombinant; tags: His tag (MST: His-tagged RPA, RED-tris-NTA dye); copies: 1;1;1; label: 5'-32P
[6] = target: T1, RPA (Rfa1-Rfa2-Rfa3); assay: EMSA; 150 mM KCl; second RPA binds at 50-100 nM; EMSA: 20 mM Tris-HCl pH 7.5, 150 (or 15) mM KCl, 1 mM DTT, 100 ug/mL BSA, 5 nM DNA, 30 C 10 min; curtains: 40 mM Tris-HCl pH 7.5, 150 or 15 mM NaCl, 2 mM MgCl2, 1 mM DTT, 0.2 mg/mL BSA; MST: 1x PBS-P+; conditions: protein: recombinant; tags: His tag (MST: His-tagged RPA, RED-tris-NTA dye); copies: 1;1;1; label: 5'-32P
[7] = target: T1, RPA (Rfa1-Rfa2-Rfa3); assay: EMSA; 150 mM KCl; 2-stage binding; EMSA: 20 mM Tris-HCl pH 7.5, 150 (or 15) mM KCl, 1 mM DTT, 100 ug/mL BSA, 5 nM DNA, 30 C 10 min; curtains: 40 mM Tris-HCl pH 7.5, 150 or 15 mM NaCl, 2 mM MgCl2, 1 mM DTT, 0.2 mg/mL BSA; MST: 1x PBS-P+; conditions: protein: recombinant; tags: His tag (MST: His-tagged RPA, RED-tris-NTA dye); copies: 1;1;1; label: 5'-32P
[8] = target: T1, RPA (Rfa1-Rfa2-Rfa3); assay: EMSA; 150 mM KCl; second RPA at 20 nM, third at 200 nM; EMSA: 20 mM Tris-HCl pH 7.5, 150 (or 15) mM KCl, 1 mM DTT, 100 ug/mL BSA, 5 nM DNA, 30 C 10 min; curtains: 40 mM Tris-HCl pH 7.5, 150 or 15 mM NaCl, 2 mM MgCl2, 1 mM DTT, 0.2 mg/mL BSA; MST: 1x PBS-P+; conditions: protein: recombinant; tags: His tag (MST: His-tagged RPA, RED-tris-NTA dye); copies: 1;1;1; label: 5'-32P

B1: dT(20) (ssDNA)
DNA: TTTTTTTTTTTTTTTTTTTT
[1]
  binding result: binds

B2: dT(30) (ssDNA)
DNA: TTTTTTTTTTTTTTTTTTTTTTTTTTTTTT
[2]
  binding result: binds
[3]
  binding result: binds

B3: dT(15) (ssDNA)
DNA: TTTTTTTTTTTTTTT
[4]
  binding result: binds

B4: dT(54) (ssDNA)
DNA: TTTTTTTTTTTTTTTTTTTTTTTTTTTTTTTTTTTTTTTTTTTTTTTTTTTTTT
[5]
  binding result: binds

B5: dT(40) (ssDNA)
DNA: TTTTTTTTTTTTTTTTTTTTTTTTTTTTTTTTTTTTTTTT
[6]
  binding result: binds

B6: dT(50) (ssDNA)
DNA: TTTTTTTTTTTTTTTTTTTTTTTTTTTTTTTTTTTTTTTTTTTTTTTTTT
[7]
  binding result: binds

B7: dT(60) (ssDNA)
DNA: TTTTTTTTTTTTTTTTTTTTTTTTTTTTTTTTTTTTTTTTTTTTTTTTTTTTTTTTTTTT
[8]
  binding result: binds
